This is an account of results in the supplement of paper PMC10201428.

Data set [1] relates to VchCAST RNA-guided transposition machinery (E. coli BL21(DE3) host, lacZ target). Description: relative integration efficiency (T-RL orientation) vs wild-type transposon end (log2 (normalized fold change)); transposon end mutated: right end (5 bp flank + 75 bp right end); higher = more efficient transposition. Summed up: (§1)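 A T7-driven effector plasmid encoding a CRISPR array, tniQ-cas8-cas7-cas6 and tnsA-tnsB-tnsC was co-transformed into E. coli BL21(DE3) together with a pUC57 mini-transposon donor holding barcoded pools of 1549 left-end or 1849 right-end variants. Transformants were plated with 0.1 mM IPTG at 37°C for 18 h. Illumina sequencing of PCR-amplified input plasmids and genomic integration junctions gave barcode abundances, and relative integration efficiency is their output/input fold change, normalised to reference barcodes and log-transformed.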

For data set [2] the test system is unchanged. The data set can be described thus: relative integration efficiency (T-LR orientation) vs wild-type transposon end (log2 (normalized fold change)); transposon end mutated: right end (5 bp flank + 75 bp right end); higher = more efficient transposition. Summed up:
as §1

± gives the standard deviation of the averaged measurements.

As for “ACATTTGTTGATACAACCATAATTTGATAATTACACCCATAAATTGATAATTATCACACCCATAAATTGATATTGCCTCTGATCATAGTCAGACCAACATTGCTACGACCCGTATTCGCACCGACAC”, the “relative integration efficiency (log2)” value was -0.314 ± 0.1 in data set [1] and -0.168 ± 0.26 in data set [2].

As for “ACATTTGTTGATACAACCATAATTTGATAATTACACCCATAATATGATAATTATCACACCCATAATATGATATTGCCTCTGATCATAGTCAGACCAACATTGCTACGACCCGTATTCGCACCGACAC”, the “relative integration efficiency (log2)” value was -0.651 ± 0.15 in data set [1] and -0.228 ± 0.16 in data set [2].

Regarding “ACATTTGTTGATACAACCATACAATGATAATTACACCCATACATTGATAATTATCACACCCATACATTGATATTGCCTCTGATCATAGTCAGACCAACATTGCTACGACCCGTATTCGCACCGACAC”, the results for the “relative integration efficiency (log2)” value in data set [1] and in data set [2] were -2.95 ± 0.34 and -1.3 ± 0.016, respectively.

As for “ACATTTGTTGATACAACCATACCATGATAATTACACCCATAAATTGATAATTATCACACCCATAAATTGATATTGCCTCTGATCATAGTCAGACCAACATTGCTACGACCCGTATTCGCACCGACAC”, the “relative integration efficiency (log2)” value is -1.34 ± 0.079 in data set [1] and -1.98 ± 0.24 in data set [2].

Turning to “ACATTTGTTGATACAACCATACCATGATAATTACACCCATACCTTGATAATTATCACACCCATACCTTGATATTGCCTCTGATCATAGTCAGACCAACATTGCTACGACCCGTATTCGCACCGACAC”, the “relative integration efficiency (log2)” value in data set [1] is -3.2 ± 0.16; in data set [2], -1.75 ± 0.22.

For the sequence “ACATTTGTTGATACAACCATACCCGGATAATTACACCCATAAATTGATAATTATCACACCCATAAATTGATATTGCCTCTGATCATAGTCAGACCAACATTGCTACGACCCGTATTCGCACCGACAC”, the “relative integration efficiency (log2)” value in data set [1] is -3.77 ± 0.26; in data set [2], -4.39 ± 0.99.

Consider “ACATTTGTTGATACAACCATACCCGTCGCCGGCACAAACGCCCGGTCGCCGGCGACACAAACGCCCGGTCGCGGTAAGAGGATCATAGTCAGACCAACATTGCTACGACCCGTATTCGCACCGACAC”, for which the entries for the “relative integration efficiency (log2)” value in data set [1] and in data set [2] were -6.48 ± 0.07 and -4.78 ± 0.59, respectively.

“ACATTTGTTGATACAACCATACCCTGATAATTACACCCATACCGTGATAATTATCACACCCATACCGTGATATTGCCTCTGATCATAGTCAGACCAACATTGCTACGACCCGTATTCGCACCGACAC”: the “relative integration efficiency (log2)” value in data set [1] was -4.24 ± 0.2; in data set [2], -2.37 ± 1.

Turning to “ACATTTGTTGATACAACCATATAATGATAATAACACCAATAAAATGATAATTATCACACCCAATTTAACTATAACGCTCTGATCATAGTCAGACCAACATTGCTACGACCCGTATTCGCACCGACAC”, the “relative integration efficiency (log2)” value in data set [1] was -1.09 ± 0.33; in data set [2], 1.887 ± 0.0053.

As for “ACATTTGTTGATACAACCATATAATGATAATAACACCCATAAAATGATAATTATCACACCCAATTTAACTATAACGCTCTGATCATAGTCAGACCAACATTGCTACGACCCGTATTCGCACCGACAC”, the “relative integration efficiency (log2)” value was -1.15 ± 0.33 in data set [1] and 2.16 ± 0.14 in data set [2].

Turning to “ACATTTGTTGATACAACCATATAATGATAATAACACCCCTAAAATGATAATTATCACACCCAATTTAACTATAACGCTCTGATCATAGTCAGACCAACATTGCTACGACCCGTATTCGCACCGACAC”, the “relative integration efficiency (log2)” value is -2.99 ± 0.37 in data set [1] and 0.598 ± 0.1 in data set [2].

Turning to “ACATTTGTTGATACAACCATATAATGATAATAACACCGATAAAATGATAATTATCACACCCAATTTAACTATAACGCTCTGATCATAGTCAGACCAACATTGCTACGACCCGTATTCGCACCGACAC”, the “relative integration efficiency (log2)” value in data set [1] is -1.46 ± 0.28; in data set [2] it was 1.74 ± 0.093.

Take “ACATTTGTTGATACAACCATATAATGATAATTACACCCATATATTGATAATTATCACACCCATATATTGATATTGCCTCTGATCATAGTCAGACCAACATTGCTACGACCCGTATTCGCACCGACAC”: the “relative integration efficiency (log2)” value in data set [1] is 0.0833 ± 0.11; in data set [2], 0.24 ± 0.36.

For the sequence “ACATTTGTTGATACAACCATATATTGATATCTCCAACCATAAAATGATAATTATCACAACCATAAAATGATAATTACTCTGATCATAGTCAGACCAACATTGCTACGACCCGTATTCGCACCGACAC”, the “relative integration efficiency (log2)” value in data set [1] is -0.172 ± 0.01; in data set [2] it was -0.314 ± 0.062.

Consider “ACATTTGTTGATACAACCATATATTGATATCTCCAACCATAAAATGATAATTATCACAACCATAAAGTGATATTTACTCTGATCATAGTCAGACCAACATTGCTACGACCCGTATTCGCACCGACAC”, for which the “relative integration efficiency (log2)” value in data set [1] is -0.115 ± 0.074; in data set [2], -0.441 ± 0.36.

On to “ACATTTGTTGATACAACCATATATTGATATCTCCAACCATAAAATGATAATTATCACAACCATAAGTTGATATTTTCTCTGATCATAGTCAGACCAACATTGCTACGACCCGTATTCGCACCGACAC”, for which the “relative integration efficiency (log2)” value in data set [1] is -0.491 ± 0.098; in data set [2], -0.357 ± 0.16.

Take “ACATTTGTTGATACAACCATATATTGATATCTCCAACCATAAAATGATAATTATCACAACCATATATTGATATCTCCTCTGATCATAGTCAGACCAACATTGCTACGACCCGTATTCGCACCGACAC”: the “relative integration efficiency (log2)” value in data set [1] is -0.5854 ± 0.0047; in data set [2], -0.283 ± 0.24.

As for “ACATTTGTTGATACAACCATATATTGATATCTCCAACCATAAAATGATAATTATCACACCCATAAATTGATAATTACTCTGATCATAGTCAGACCAACATTGCTACGACCCGTATTCGCACCGACAC”, the “relative integration efficiency (log2)” value in data set [1] was -0.0947 ± 0.0052; in data set [2], -0.0737 ± 0.099.

In the case of “ACATTTGTTGATACAACCATATATTGATATCTCCAACCATAAAATGATAATTATCACACCCATAAATTGATATTGCCTCTGATCATAGTCAGACCAACATTGCTACGACCCGTATTCGCACCGACAC”, the “relative integration efficiency (log2)” value in data set [1] was -0.212 ± 0.018; in data set [2] it was -0.381 ± 0.023.

On to “ACATTTGTTGATACAACCATATATTGATATCTCCAACCATAAAATGATAATTATCAGTGGGTATTTAACTATAACGCTCTGATCATAGTCAGACCAACATTGCTACGACCCGTATTCGCACCGACAC”, for which the “relative integration efficiency (log2)” value was -1.15 ± 0.24 in data set [1] and 2.32 ± 0.29 in data set [2].

“ACATTTGTTGATACAACCATATATTGATATCTCCAACCATAAAGTGATATTTATCACAACCATAAAATGATAATTACTCTGATCATAGTCAGACCAACATTGCTACGACCCGTATTCGCACCGACAC”: the entries for the “relative integration efficiency (log2)” value in data set [1] and in data set [2] were -0.716 ± 0.2 and -0.762 ± 0.065, respectively.

With “ACATTTGTTGATACAACCATATATTGATATCTCCAACCATAAAGTGATATTTATCACAACCATAAAGTGATATTTACTCTGATCATAGTCAGACCAACATTGCTACGACCCGTATTCGCACCGACAC”, the “relative integration efficiency (log2)” value is -0.409 ± 0.1 in data set [1] and -0.451 ± 0.11 in data set [2].

Turning to “ACATTTGTTGATACAACCATATATTGATATCTCCAACCATAAAGTGATATTTATCACAACCATAAGTTGATATTTTCTCTGATCATAGTCAGACCAACATTGCTACGACCCGTATTCGCACCGACAC”, the “relative integration efficiency (log2)” value in data set [1] amounted to 0.261 ± 0.2; in data set [2], 0.0054 ± 0.55.

Take “ACATTTGTTGATACAACCATATATTGATATCTCCAACCATAAAGTGATATTTATCACAACCATATATTGATATCTCCTCTGATCATAGTCAGACCAACATTGCTACGACCCGTATTCGCACCGACAC”: the “relative integration efficiency (log2)” value was -0.515 ± 0.17 in data set [1] and -0.237 ± 0.36 in data set [2].

For “ACATTTGTTGATACAACCATATATTGATATCTCCAACCATAAAGTGATATTTATCACACCCATAAATTGATAATTACTCTGATCATAGTCAGACCAACATTGCTACGACCCGTATTCGCACCGACAC”, the “relative integration efficiency (log2)” value in data set [1] is -0.578 ± 0.023; in data set [2], -0.426 ± 0.18.
